Source: article PMC7769281, “The plasticity of the pyruvate dehydrogenase complex confers a labile structure that is associated with its catalytic activity” (PLoS ONE, 2020)

Target: the molecule itself
Experiment: SEC; FLAG-purified E3-5xFLAG on Superose 6 in 350 mM NaCl; peak fraction (16 ml, ~230 kDa) analysed by MudPIT

B1: yeast PDC E3, Lpd1-5xFLAG (natural protein, S. cerevisiae, UniProt P09624 22-499, looked up)
chain: TINKSHDVVIIGGGPAGYVAAIKAAQLGFNTACVEKRGKLGGTCLNVGCIPSKALLNNSHLFHQMHTEAQKRGIDVNGDIKINVANFQKAKDDAVKQLTGGIELLFKKNKVTYYKGNGSFEDETKIRVTPVDGLEGTVKEDHILDVKNIIVATGSEVTPFPGIEIDEEKIVSSTGALSLKEIPKRLTIIGGGIIGLEMGSVYSRLGSKVTVVEFQPQIGASMDGEVAKATQKFLKKQGLDFKLSTKVISAKRNDDKNVVEIVVEDTKTNKQENLEAEVLLVAVGRRPYIAGLGAEKIGLEVDKRGRLVIDDQFNSKFPHIKVVGDVTFGPMLAHKAEEEGIAAVEMLKTGHGHVNYNNIPSVMYSHPEVAWVGKTEEQLKEAGIDYKIGKFPFAANSRAKTNQDTEGFVKILIDSKTERILGAHIIGPNAGEMIAEAGLALEYGASAEDVARVCHAHPTLSEAFKEANMAAYDKAIHC
notes: Dihydrolipoamide dehydrogenase (E3, Lpd1), S. cerevisiae BY4741; also called E3-5xFLAG; yPDC-E3
**Q.** Does B1 bind?
**A.** Result: binds
